Experimental data reported in US11419948B2, “Functionalized microgels with fibrin binding elements” (Georgia Tech Research Corporation, priority 2013, dated 2022).

Assays:
platelet-poor plasma = assay: Gross clot contraction of platelet-poor plasma clots; assay type: biochemical
Description: Clot collapse was characterized at the macroscopic level by performing standard gross clot contraction experiments routinely utilized by platelet biologists, Thomas, et al., BMC Cell Biology, 8:46 (2007); Suzuki-Inoue, et al., Thrombosis Research, 120:251-258 (2007). It was expected that particle deformability would play a large role in the ability of fibrin-binding microgels to induce gross clot deformation and architectural changes. Clots were created through the addition of 1 U/mL thrombin (final concentration) to platelet-poor plasma containing microgels of varying crosslinking. Clot collapse was observed within 48 hours in the presence of PLPs but not under any other conditions tested (FIG. 4B). […] Because natural platelet mediated contraction decreases clot degradation rates, we analyzed clot degradation rates in the absence or presence of PLPs. […] Because clot contraction was not observed in the presence of non-fibrin binding ULC microgels or in the presence of fibrin-binding BIS crosslinked microgels or hard PS particles, we conclude that, while enhancement of clotting in vitro only requires high affinity and multivalency for fibrin, particle deformability is critical to the ability of fibrin-binding particles to induce clot collapse. To fully recapitulate the hemostatic functions of platelets (enhancement of dotting and clot contraction following hemostasis) it appears that both high fibrin affinity and high particle deformability are required.

fibrin E Regions = assay: ELISA against adsorbed fibrin E Regions; assay type: binding; conditions: E Region dilutions
Procedure: (§1) This was determined through ELISAs against plates coated with adsorbed fibrin D-Dimers or E Regions.
(§2) ELISA set-up and analysis was identical to that performed for the plasma-binding ELISA, the main exception being a substitution of human plasma dilutions for D-Dimer or E Region dilutions adsorbed to the 96-well plates. Both D-Dimer and […]

fibrin D-Dimers = biological target: T1, fibrin D-Dimers (Homo sapiens, UniProt P02671+P02675+P02679, DEL433-453); assay: ELISA against adsorbed fibrin D-Dimers; assay type: binding; conditions: D-Dimer dilutions
T1 construct: ELISAs against plates coated with adsorbed fibrin D-Dimers or E Regions
T1 sequence (P02671 130-216 limits assumed): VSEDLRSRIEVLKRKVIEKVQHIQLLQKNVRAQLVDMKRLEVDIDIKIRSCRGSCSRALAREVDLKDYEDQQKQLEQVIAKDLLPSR
T1 sequence (P02675 164-491 limits assumed): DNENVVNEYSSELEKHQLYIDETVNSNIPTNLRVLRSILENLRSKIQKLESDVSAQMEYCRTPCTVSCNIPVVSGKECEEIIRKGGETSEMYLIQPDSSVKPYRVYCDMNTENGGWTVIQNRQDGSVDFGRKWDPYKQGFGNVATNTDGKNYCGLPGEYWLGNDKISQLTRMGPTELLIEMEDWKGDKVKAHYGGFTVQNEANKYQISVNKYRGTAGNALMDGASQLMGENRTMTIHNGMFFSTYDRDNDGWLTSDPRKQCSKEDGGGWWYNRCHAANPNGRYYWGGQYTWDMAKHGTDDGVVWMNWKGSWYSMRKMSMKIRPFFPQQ
T1 sequence (P02679 114-432 limits assumed): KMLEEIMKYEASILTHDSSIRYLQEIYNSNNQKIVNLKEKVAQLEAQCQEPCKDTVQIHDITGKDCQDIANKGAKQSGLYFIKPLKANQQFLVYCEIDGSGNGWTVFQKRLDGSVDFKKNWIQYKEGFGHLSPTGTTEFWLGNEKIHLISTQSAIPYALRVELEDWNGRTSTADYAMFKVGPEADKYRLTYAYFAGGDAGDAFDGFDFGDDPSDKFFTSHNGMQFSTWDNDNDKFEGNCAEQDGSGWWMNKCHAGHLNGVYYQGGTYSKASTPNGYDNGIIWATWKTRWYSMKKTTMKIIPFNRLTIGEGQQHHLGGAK
Procedure: as §1, §2

B1: PLPs: ultra-low crosslinked pNIPAm-AAc microgels conjugated to fibrin-specific sdFv H6 (conjugate)
VH: QVQLLESGGGLVQPGGSLRLSCAASGDRFTHNDMGWVRQAPGKGLEWVSTIPTTDGSTYYADSVKGRFTISRDNSKSTLYLQMNSLRAEDTAVYYCATGYMWKAPAYVKYWGQGTLVTVSSAAAEQKLISEEDLNSAAHYTDIG
platelet-poor plasma; platelet-poor plasma with particles versus native platelet-rich plasma
  overall degree of clot contraction: No significant differences
platelet-poor plasma; platelet-poor plasma, 1 U/mL thrombin
  time to clot collapse: ≤ 48 h
platelet-poor plasma; versus native platelet-containing clots
  rate of induced clot collapse: significantly less

B2: H6: fibrin-specific human sdFv clone from phage biopanning, SEQ ID NO: 1 (protein)
VHH: QVQLLESGGGLVQPGGSLRLSCAASGDRFTHNDMGWVRQAPGKGLEWVSTIPTTDGSTYYADSVKGRFTISRDNSKSTLYLQMNSLRAEDTAVYYCATGYMWKAPAYVKYWGQGTLVTVSSAAAEQKLISEEDLNSAAHYTDIG
Fibrin E Regions
  binding to E Region: negligible binding
Fibrin D-Dimers
  binding to D-Dimer: negligible binding
